This note sets out measurements from paper PMC5348903.

Sequence of short isoform of BST2, Q10589-2 (Q10589 13-161): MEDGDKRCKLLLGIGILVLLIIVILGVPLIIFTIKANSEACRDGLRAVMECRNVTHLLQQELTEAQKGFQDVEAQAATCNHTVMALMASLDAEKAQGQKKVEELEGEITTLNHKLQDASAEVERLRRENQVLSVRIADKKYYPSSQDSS

One test addresses short isoform of BST2, Q10589-2. The test is described as follows: co-immunoprecipitation (Western blot densitometry). Particulars: HEK293T cells co-transfected with proviral construct and expressor of the short isoform of BST2; parent: 100. Background: Immunoblotting shows a protein as a band on a membrane.
Take “HIV-1 NL4-3 Vpu, wildtype E28A; L33A; E59K; L63F”: the percent of parent (% BST2 binding (relative to WT)) is 31.
Regarding HIV-1 NL4-3 Vpu, wildtype E28A; L33A, the percent of parent (% BST2 binding (relative to WT)) was 18.
The same measure, in the same setting: in the case of HIV-1 NL4-3 Vpu, wildtype S52D; S56D it was 111; in that of “HIV-1 NL4-3 Vpu, wildtype A10L; A14L; A18L”, 12; in that of HIV-1 NL4-3 Vpu, wildtype E59K; L63F, 144.

The next test concerns the target BST2 (WT BST2 expressor) (UniProt Q10589). The test can be described thus: co-immunoprecipitation (anti-BST2 Ab pull-down, Western blot densitometry). As to conditions: HEK293T cells co-transfected with proviral construct and BST2 expressor; parent: 100.
As for “HIV-1 NL4-3 Vpu, wildtype E28A; L33A; E59K; L63F”, the percent of parent (% BST2 binding (relative to WT)) was 43.
Regarding HIV-1 NL4-3 Vpu, wildtype E28A; L33A, the percent of parent (% BST2 binding (relative to WT)) worked out at 24.
With HIV-1 NL4-3 Vpu, wildtype S52D; S56D, the percent of parent (% BST2 binding (relative to WT)) turned out to be 130.
With “HIV-1 NL4-3 Vpu, wildtype A10L; A14L; A18L”, the percent of parent (% BST2 binding (relative to WT)) was determined as 14.
With HIV-1 NL4-3 Vpu, wildtype E59K; L63F, the percent of parent (% BST2 binding (relative to WT)) amounted to 139.
